Our source for the self-cleavage values is the RNAGym collection of RNA variant scans (doi:10.7554/elife.80360).

First the molecules themselves.
B1: HDV Ribozyme (parent)
chain: GGCCGGCAUGGUCCCAGCCUCCUCGCUGGCGCCGGCUGGGCAACAUUCCGAGGGGACCGUCCCCUCGGUAAUGGCGAAUGGGACCCA

In this data set the parent is B1. The data set can be described thus: self-cleavage, relative activity (ratio to wild type); higher = more cleavage; co-transcriptional.
Take C4A C62G: the self-cleavage was found to be 0.

Take C4A C62A: the self-cleavage is 0.177.

Turning to C4G C30G, the self-cleavage came out at 0.

In the case of C4G G59A, the self-cleavage was 0.198.

With G5A A45G, the self-cleavage turned out to be 0.196.

As for G5A G39U, the self-cleavage amounted to 0.101.

On to G5A G39A, for which the self-cleavage amounted to 0.181.

Consider C4G G38C, for which the self-cleavage was 0.

With G5A G76A, the self-cleavage turned out to be 0.229.

Turning to C4A C33U, the self-cleavage worked out at 0.104.

In the case of C4A G5C, the self-cleavage came out at 0.232.

In the case of C4A G5U, the self-cleavage came to 0.122.

On to G5C A45C, for which the self-cleavage stood at 0.0639.

Regarding C4U U23C, the self-cleavage is 0.571.

Take C4U G6A: the self-cleavage came out at 0.532.

On to C4A G28C, for which the self-cleavage turned out to be 0.0396.

For the variant C4A C30G, the self-cleavage amounted to 0.

Consider C4A C30U, for which the self-cleavage came out at 0.116.

Take C4A U23G: the self-cleavage was found to be 0.0449.

Turning to C4G U69C, the self-cleavage turned out to be 0.308.

Turning to C4G U69G, the self-cleavage came out at 0.317.

G5U A45G: the self-cleavage worked out at 0.692.

Take G5U A45C: the self-cleavage was 0.0875.

Turning to C4A C64A, the self-cleavage amounted to 0.157.

As for C4A C64G, the self-cleavage came to 0.386.

For the variant G5A G81U, the self-cleavage stood at 0.

Consider G5U A78U, for which the self-cleavage stood at 0.0723.

On to G5U A78C, for which the self-cleavage came to 0.185.

Consider G5C A56G, for which the self-cleavage turned out to be 0.237.

Turning to G5C A56U, the self-cleavage came out at 0.314.

In the case of G5U C32G, the self-cleavage came to 0.196.

For G5U C32A, the self-cleavage is 0.0875.

In the case of C4A C24U, the self-cleavage came to 0.

With G5A C13A, the self-cleavage came out at 0.0369.

C4G A45C: the self-cleavage is 0.0554.

For the variant C4G A70C, the self-cleavage is 0.244.

Turning to C4G A70U, the self-cleavage stood at 0.35.

For G5U A71G, the self-cleavage stood at 0.361.

As for C4G G81A, the self-cleavage was found to be 0.0382.

C4A C7A: the self-cleavage was 0.0449.

For the variant C4U G35A, the self-cleavage is 0.173.

Consider C4U G35C, for which the self-cleavage was determined as 0.119.

Consider C4U C58A, for which the self-cleavage was determined as 0.852.

For C4U C58U, the self-cleavage amounted to 1.15.

Regarding C4U G74U, the self-cleavage was determined as 0.163.

C4U U79G: the self-cleavage is 0.185.

Regarding C4U C13G, the self-cleavage is 0.0449.

In the case of G5A U37A, the self-cleavage amounted to 0.

Regarding C4G U23C, the self-cleavage was found to be 0.208.

Consider G5U C15U, for which the self-cleavage was determined as 0.723.

G5U C15A: the self-cleavage turned out to be 0.0831.

In the case of C4G G39C, the self-cleavage stood at 0.0326.

As for C4G G39A, the self-cleavage is 0.0183.

As for C4U C41G, the self-cleavage is 0.374.

Consider C4A G52A, for which the self-cleavage worked out at 0.401.

Regarding G5C A51G, the self-cleavage was found to be 0.262.

Regarding G5A G25A, the self-cleavage amounted to 0.

Regarding C4A U27G, the self-cleavage is 0.225.

Turning to G5A G59A, the self-cleavage is 0.407.

In the case of G5C C86G, the self-cleavage was 0.113.

In the case of G5C C86U, the self-cleavage was found to be 0.172.

On to C4U G34A, for which the self-cleavage was found to be 0.772.

For G5C U60G, the self-cleavage was 0.185.

Take C4G A78C: the self-cleavage was 0.0923.

As to C4G A78U, the self-cleavage came to 0.116.

On to C4U G38C, for which the self-cleavage turned out to be 0.116.

Regarding C4U C19A, the self-cleavage is 0.0678.

Regarding G5C G55C, the self-cleavage came out at 0.0898.

In the case of G5C C84U, the self-cleavage amounted to 0.119.

With C4A C15A, the self-cleavage is 0.198.

Turning to G5C C63G, the self-cleavage is 0.

As to G5C C63A, the self-cleavage came to 0.383.

For G5C C63U, the self-cleavage was 0.0437.

Take C4G A71U: the self-cleavage worked out at 0.156.

Regarding G5A C49G, the self-cleavage is 0.237.

As to G5U C21G, the self-cleavage was found to be 0.0791.

In the case of G5U C21U, the self-cleavage is 0.0462.

On to C4U U72G, for which the self-cleavage amounted to 0.361.

C4U G53U: the self-cleavage is 0.831.

For the variant G5C C26G, the self-cleavage turned out to be 0.138.

With C4A G11U, the self-cleavage was 0.

With G5C G31A, the self-cleavage was 0.0755.

With G5C G31C, the self-cleavage came to 0.0519.

Turning to G5C C22A, the self-cleavage was 0.

Consider C4U C24U, for which the self-cleavage stood at 0.237.

Regarding G5U A8C, the self-cleavage came out at 0.0875.

Consider G5A A51C, for which the self-cleavage was found to be 0.312.

Consider C4U C26G, for which the self-cleavage was 0.72.

C4U C85A: the self-cleavage came out at 0.341.

Consider C4A G25A, for which the self-cleavage stood at 0.089.

Consider C4A C44U, for which the self-cleavage was 0.0739.

On to C4A C44G, for which the self-cleavage stood at 0.0665.

For the variant C4A G67U, the self-cleavage worked out at 0.354.

Consider G5A U9A, for which the self-cleavage amounted to 0.332.

Take C4G: the self-cleavage came to 0.376.

On to C4U, for which the self-cleavage stood at 0.758.

With C4A, the self-cleavage came out at 0.315.

In the case of G5C G38U, the self-cleavage is 0.

Take C4G C26U: the self-cleavage was found to be 0.684.

For G5A A87G, the self-cleavage stood at 0.252.

For G5C G50A, the self-cleavage stood at 0.302.

Turning to G5C C21A, the self-cleavage was determined as 0.0831.

Consider G5A U69G, for which the self-cleavage turned out to be 0.353.

On to C4U U69C, for which the self-cleavage was determined as 0.755.

C4U U69G: the self-cleavage amounted to 0.831.

As to G5C G73U, the self-cleavage was 0.0504.

Take G5U A43G: the self-cleavage was 0.

For G5U A43U, the self-cleavage amounted to 0.0978.

Turning to G5C G11C, the self-cleavage was found to be 0.196.

With G5C C33G, the self-cleavage stood at 1.43.

Turning to G5C C33A, the self-cleavage is 0.26.

Turning to C4A C22A, the self-cleavage came out at 0.0332.

For G5A G40A, the self-cleavage was determined as 0.0992.

In the case of C4U C84U, the self-cleavage was 0.514.

For C4U C84A, the self-cleavage came out at 0.712.

As to G5C C44G, the self-cleavage was 0.

For the variant G5A G11C, the self-cleavage was found to be 0.214.

With G5A G11A, the self-cleavage came out at 0.101.

For the variant G5A C22U, the self-cleavage was found to be 0.0831.

Regarding G5A C22G, the self-cleavage turned out to be 0.0554.

For the variant G5C U37G, the self-cleavage stood at 0.111.

Turning to G5A C21A, the self-cleavage worked out at 0.0923.

For the variant C4U G28C, the self-cleavage is 0.

As for G5C A42G, the self-cleavage came to 0.

With C4G C64U, the self-cleavage was determined as 0.214.

C4G C44A: the self-cleavage was found to be 0.0346.

As for G5A C86G, the self-cleavage worked out at 0.13.

Consider C4G A56G, for which the self-cleavage turned out to be 0.249.

G5C U9A: the self-cleavage stood at 0.138.

In the case of C4U G11U, the self-cleavage was determined as 0.219.

In the case of G5U C26A, the self-cleavage came out at 0.697.

In the case of C4A C86G, the self-cleavage stood at 0.405.

G5U C7A: the self-cleavage was found to be 0.566.

In the case of C4U G10A, the self-cleavage came out at 0.35.

As to C4A U72C, the self-cleavage stood at 0.111.

Consider C4G C75G, for which the self-cleavage stood at 0.122.

C4G C75A: the self-cleavage was 0.0692.

On to G5C C24A, for which the self-cleavage came out at 0.0811.

Consider G5C G54C, for which the self-cleavage is 0.158.

For G5C G54U, the self-cleavage amounted to 0.217.

Turning to C4G A8U, the self-cleavage was found to be 0.214.

Turning to C4A G82A, the self-cleavage was determined as 0.0272.

As for C4A G82U, the self-cleavage came out at 0.089.

Consider C4G A42U, for which the self-cleavage was 0.0875.

Regarding G5C C66G, the self-cleavage was determined as 0.151.

As to G5C G68U, the self-cleavage turned out to be 0.0615.

In the case of G5C G29A, the self-cleavage came out at 0.147.

As to C4A C61G, the self-cleavage was 0.193.

C4A C61U: the self-cleavage came to 0.267.

Consider C4A C61A, for which the self-cleavage worked out at 0.219.

For G5A G55A, the self-cleavage was 0.237.

With C4A C84U, the self-cleavage came to 0.172.

C4A C63U: the self-cleavage was 0.344.

Turning to C4G G28C, the self-cleavage amounted to 0.101.

G5A A77U: the self-cleavage was found to be 0.

Consider G5A A77C, for which the self-cleavage stood at 0.0504.

On to C4A A8C, for which the self-cleavage is 0.

As to C4A A8U, the self-cleavage turned out to be 0.0723.

On to G5U A77G, for which the self-cleavage is 0.227.

Take G5C G25U: the self-cleavage stood at 0.0475.

Turning to C4A G50C, the self-cleavage turned out to be 0.456.

With C4A G50A, the self-cleavage amounted to 0.172.

C4U G39A: the self-cleavage was determined as 0.136.

As for C4U G39U, the self-cleavage came out at 0.58.

For the variant G5A C26U, the self-cleavage is 0.511.

With G5C C75A, the self-cleavage came out at 0.0536.

Turning to G5A U47G, the self-cleavage turned out to be 0.0875.
